For assay [1], the target named is T1, extracellular portion of mouse CD155 tagged with His protein at the C terminus (mouse).
T1 chain: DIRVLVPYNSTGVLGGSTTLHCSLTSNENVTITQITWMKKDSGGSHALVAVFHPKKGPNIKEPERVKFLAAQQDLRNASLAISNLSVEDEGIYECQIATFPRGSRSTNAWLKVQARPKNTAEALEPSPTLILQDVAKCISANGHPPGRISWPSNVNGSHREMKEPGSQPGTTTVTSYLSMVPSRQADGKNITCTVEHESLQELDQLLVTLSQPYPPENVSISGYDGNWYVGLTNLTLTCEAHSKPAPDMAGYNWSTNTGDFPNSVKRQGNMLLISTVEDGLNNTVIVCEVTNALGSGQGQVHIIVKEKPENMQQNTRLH
Put plainly: BLI. On the technique in general: Biolayer interferometry detects binding as a change in optical thickness at a sensor tip.

Assay [2] concerns the target T2, extracellular portion of human CD155 tagged with His protein at the C terminus (human, UniProt P15151 21-343).
T2 construct: human CD155 (poliovirus receptor, nectin-like protein-5), extracellular portion; R&D Systems"); also called sCD155-His; human His-tagged sCD155; source: bought: R&D Systems; not shown: His, C-terminal, kept
T2 sequence (looked up): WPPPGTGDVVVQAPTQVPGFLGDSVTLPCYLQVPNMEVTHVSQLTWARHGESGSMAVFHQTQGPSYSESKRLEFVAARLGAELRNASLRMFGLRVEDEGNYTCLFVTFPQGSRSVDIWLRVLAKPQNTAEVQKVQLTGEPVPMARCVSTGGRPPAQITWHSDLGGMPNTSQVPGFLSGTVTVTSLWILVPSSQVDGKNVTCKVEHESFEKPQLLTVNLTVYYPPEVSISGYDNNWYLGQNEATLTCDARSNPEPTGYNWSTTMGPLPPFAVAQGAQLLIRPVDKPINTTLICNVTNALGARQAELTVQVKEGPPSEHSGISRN
Put plainly: BLI; His-tagged recombinant CD155 (20 µg/ml) loaded on a Ni-NTA biosensor; Fc fusion proteins as analytes at three concentrations; kinetics buffer; association 120 s, dissociation 120 s; global mode of BLItz. The settings on record: both partners purified.

Assay [3] deals with T3, extracellular portion of human CD155 tagged with His protein at the C terminus (human, UniProt P15151 21-343).
T3 chain: T2 sequence (looked up)
Nature of the assay: BLI.

B1: mouse DNAM-1 Fc fusion protein (Fc fusion)
chain: EETLWDTTVRLSETMTLECVYPLTHNLTQVEWTKNTGTKTVSIAVYNPNHNMHIESNYLHRVHFLNSTVGFRNMSLSFYNASEADIGIYSCLFHAFPNGPWEKKIKVVWSDSFEIAAPSDSYLSAEPGQDVTLTCQLPRTWPVQQVIWEKVQPHQVDILASCNLSQETRYTSKYLRQTRSNCSQGSMKSILIIPNAMAADSGLYRCRSEAITGKNKSFVIRLIITDGGTNKHFILP
Regarding B1, in assay [1], binding was put at a Kd of 8.83 nM.

B2: mouse TIGIT Fc fusion protein (Fc fusion)
chain: TIDTKRNISAEEGGSVILQCHFSSDTAEVTQVDWKQQDQLLAIYSVDLGWHVASVFSDRVVPGPSLGLTFQSLTMNDTGEYFCTYHTYPGGIYKGRIFLKVQESSDDRNGLAQFQTAPLG
As for B2, the Kd – broadly, the free concentration of one partner at which half of the binding sites on the other are occupied at equilibrium, for simple one-to-one binding – in assay [1] is 22.4 nM.

B3: mouse CD96 Fc fusion protein (Fc fusion)
chain: VWEELFNVGDDVYALPGSDINLTCQTKEKNFLVQMQWSKVTDKNDMIALYHPQYGLYCGQEHACESQVAATETEKGVTNWTLYLRNISSALGGKYECIFTLYPEGIKTTVYNLIVEPYTQDEHNYTIEIETNRTLEIPCFQNTSSEIPPRFTFSWLVEKDGVEEVLFTHHHHVNNSTSFKGRIRLGGDYRLHLSPVQIQDDGRTFSCHLTVNPLKAWKMSTTVKVFAKPEILMTVENSTMDVLGERVFTCLLKNVFPKANITWFIDGRFLQGNEEGIYITNEEKNCSSGFWELKSVLTRMHSGPSQSNNMTAWCMALSPGPRNKMWNTSSQPITVSFDSVIAPTKHLPTVTGSTLGTQPFSDAGVSPTGYLATPSVTIVDENGLTPDATPQTSNSSMTTKDGNYLEASSGTDAKNSSRAAASSKSGSWPFPFTSPPEWHSLPGTSTGPQEPDSPVSWIPSEVHTSAPLDASLAPHDTIISTTTEFPNVLTTANGTTKIDHGPITSIIVNQPSDGM
Molecule B3 returned a Kd in assay [1] of 29.7 nM.

B4: human TIGIT Fc fusion protein (Fc fusion, UniProt Q495A1 22-141, looked up)
chain: MMTGTIETTGNISAEKGGSIILQCHLSSTTAQVTQVNWEQQDQLLAICNADLGWHISPSFKDRVAPGPGLGLTLQSLTVNDTGEYFCIYHTYPDGTYTGRIFLEVLESSVAEHGARFQIP
notes: human TIGIT, extracellular portion; source: bought: R&D Systems
On to B4, for which, in assay [2], the binding result is reported as “binds”. Also, the Kd in assay [3] turned out to be 15.2 nM.

B5: human DNAM-1 Fc fusion protein (Fc fusion, UniProt Q15762 19-254, looked up)
chain: EEVLWHTSVPFAENMSLECVYPSMGILTQVEWFKIGTQQDSIAIFSPTHGMVIRKPYAERVYFLNSTMASNNMTLFFRNASEDDVGYYSCSLYTYPQGTWQKVIQVVQSDSFEAAVPSNSHIVSEPGKNVTLTCQPQMTWPVQAVRWEKIQPRQIDLLTYCNLVHGRNFTSKFPRQIVSNCSHGRWSVIVIPDVTVSDSGLYRCYLQASAGENETFVMRLTVAEGKTDNQYTLFVA
notes: human DNAM-1 (DNAX accessory molecule 1, CD226), extracellular portion; source: bought: R&D Systems
For the molecule B5, the binding result in assay [2] was “binds”. The same molecule came in with a Kd in assay [3] of 3.56 nM.

For the origin of these results see paper PMC7144518, “Tumor-derived soluble CD155 inhibits DNAM-1–mediated antitumor activity of natural killer cells” (The Journal of Experimental Medicine, 2020).
